Holding throughout (format): binding
A short description of experiment [1]: Probe fluorescence ratio response to palmitic acid relative to ADIFAB2. To be noted: response relative to ADIFAB2. Put shortly: (§1)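 Each fatty acid's response was expressed relative to ADIFAB2, the rI-FABP-L72A probe, as ΔR/ΔRreference. ΔR is the change in the background-corrected two-wavelength intensity ratio R=Fλ1/Fλ2 from its analyte-free baseline R0. Emission was read near about 420-480 nm for unbound and about 495-580 nm for FFA-bound probe.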

A short description of experiment [2]: Probe fluorescence ratio response to oleic acid relative to ADIFAB2. To be noted: response relative to ADIFAB2. Put shortly: as §1
A short description of experiment [3]: Probe fluorescence ratio response to arachidonic acid relative to ADIFAB2. The settings on record: arachidonic acid; response relative to ADIFAB2. Put shortly: as §1
Experiment [4] is described as follows: Probe fluorescence ratio response to linolenic acid relative to ADIFAB2. The settings on record: response relative to ADIFAB2. Put shortly: as §1
Experiment [5] is described as follows: Probe fluorescence ratio response to linoleic acid relative to ADIFAB2. To be noted: response relative to ADIFAB2. Put shortly:
as §1

From patent US20060257938A1, “Method of screening for drugs that block ligand binding to a lipid binding protein” (priority 2005, published 2006) come the findings set out here.

B1: 40M, 72A (protein, listed as Rattus norvegicus)
chain: AFDGTWKVDRNENYEKFMEKMGINVVKRKLGAHDNLKLTMTQEGNKFTVKESSNFRNIDVVFELGVDFAYSAADGTELTGTWTMEGNKLVGKFKRVDNGKELIAVREISGNELIQTYTYEGVEAKRIFKKE
modifications: PEPTIDE (1)...(131) wild-type rat intestinal fatty acid binding protein
Regarding B1, in experiment [1], the “DR/DR PA” value is recorded as 0.691. For the same molecule, the “DR/DR OA” value in experiment [2] worked out at 0.990. In experiment [3], the “DR/DR AA” value worked out at 0.993. For the same molecule, the “DR/DR LNA” value in experiment [4] was found to be 1.021. The “DR/DR LA” value in experiment [5] is recorded as 1.086.

B2: 38G, 72A (protein, listed as Rattus norvegicus)
chain: AFDGTWKVDRNENYEKFMEKMGINVVKRKLGAHDNLKGTITQEGNKFTVKESSNFRNIDVVFELGVDFAYSAADGTELTGTWTMEGNKLVGKFKRVDNGKELIAVREISGNELIQTYTYEGVEAKRIFKKE
modifications: PEPTIDE (1)...(131) wild-type rat intestinal fatty acid binding protein
On to B2, for which the “DR/DR PA” value in experiment [1] is recorded as 0.447. Moreover, the “DR/DR OA” value in experiment [2] is recorded as 0.945. The “DR/DR AA” value in experiment [3] came to 0.996. For the same molecule, the “DR/DR LNA” value in experiment [4] amounted to 0.992. In addition, the “DR/DR LA” value in experiment [5] was found to be 1.003.

B3: 115W, 72A (protein, listed as Rattus norvegicus)
chain: AFDGTWKVDRNENYEKFMEKMGINVVKRKLGAHDNLKLTITQEGNKFTVKESSNFRNIDVVFELGVDFAYSAADGTELTGTWTMEGNKLVGKFKRVDNGKELIAVREISGNELIWTYTYEGVEAKRIFKKE
modifications: PEPTIDE (1)...(131) wild-type rat intestinal fatty acid binding protein
B3: in experiment [1], the “DR/DR PA” value is listed as 0.805. Besides, the “DR/DR OA” value in experiment [2] turned out to be 1.352. Besides, the “DR/DR AA” value in experiment [3] worked out at 1.483. In addition, the “DR/DR LNA” value in experiment [4] stood at 1.396. The “DR/DR LA” value in experiment [5] is 1.486.

B4: 70W, 72A (protein, listed as Rattus norvegicus)
chain: AFDGTWKVDRNENYEKFMEKMGINVVKRKLGAHDNLKLTITQEGNKFTVKESSNFRNIDVVFELGVDFAWSAADGTELTGTWTMEGNKLVGKFKRVDNGKELIAVREISGNELIQTYTYEGVEAKRIFKKE
modifications: PEPTIDE (1)...(131) wild-type rat intestinal fatty acid binding protein
As to B4, the “DR/DR PA” value in experiment [1] is on record as 0.212. The “DR/DR OA” value in experiment [2] is recorded as 0.381. The “DR/DR AA” value in experiment [3] turned out to be 0.349. Besides, in experiment [4], the “DR/DR LNA” value amounted to 0.385. For the same molecule, the “DR/DR LA” value in experiment [5] is reported as 0.451.

B5: 40V, 72A (protein, listed as Rattus norvegicus)
chain: AFDGTWKVDRNENYEKFMEKMGINVVKRKLGAHDNLKLTVTQEGNKFTVKESSNFRNIDVVFELGVDFAYSAADGTELTGTWTMEGNKLVGKFKRVDNGKELIAVREISGNELIQTYTYEGVEAKRIFKKE
modifications: PEPTIDE (1)...(131) wild-type rat intestinal fatty acid binding protein
B5: in experiment [1], the “DR/DR PA” value worked out at 0.867. Further, in experiment [2], the “DR/DR OA” value is given as 1.002. For the same molecule, the “DR/DR AA” value in experiment [3] came out at 1.013. Moreover, the “DR/DR LNA” value in experiment [4] is given as 1.059. The “DR/DR LA” value in experiment [5] worked out at 1.057.

B6: 70H, 72A (protein, listed as Rattus norvegicus)
chain: AFDGTWKVDRNENYEKFMEKMGINVVKRKLGAHDNLKLTITQEGNKFTVKESSNFRNIDVVFELGVDFAHSAADGTELTGTWTMEGNKLVGKFKRVDNGKELIAVREISGNELIQTYTYEGVEAKRIFKKE
modifications: PEPTIDE (1)...(131) wild-type rat intestinal fatty acid binding protein
In the case of B6, the “DR/DR PA” value in experiment [1] came out at 0.567. In addition, the “DR/DR OA” value in experiment [2] is 0.836. Further, in experiment [3], the “DR/DR AA” value is listed as 0.751. Further, the “DR/DR LNA” value in experiment [4] came out at 0.886. Also, in experiment [5], the “DR/DR LA” value was found to be 0.929.

B7: 18K, 72A (protein, listed as Rattus norvegicus)
chain: AFDGTWKVDRNENYEKFKEKMGINVVKRKLGAHDNLKLTITQEGNKFTVKESSNFRNIDVVFELGVDFAYSAADGTELTGTWTMEGNKLVGKFKRVDNGKELIAVREISGNELIQTYTYEGVEAKRIFKKE
modifications: PEPTIDE (1)...(131) wild-type rat intestinal fatty acid binding protein
Consider B7, for which the “DR/DR PA” value in experiment [1] was determined as 0.544. The “DR/DR OA” value in experiment [2] is listed as 0.803. Moreover, the “DR/DR AA” value in experiment [3] was 0.800. Besides, the “DR/DR LNA” value in experiment [4] was 0.925. The “DR/DR LA” value in experiment [5] is reported as 0.967.

B8: 72A 117A (protein, listed as Rattus norvegicus)
chain: AFDGTWKVDRNENYEKFMEKMGINVVKRKLGAHDNLKLTITQEGNKFTVKESSNFRNIDVVFELGVDFAYSAADGTELTGTWTMEGNKLVGKFKRVDNGKELIAVREISGNELIQTATYEGVEAKRIFKKE
modifications: PEPTIDE (1)...(131) wild-type rat intestinal fatty acid binding protein
Consider B8, for which the “DR/DR PA” value in experiment [1] was determined as 0.433. Further, the “DR/DR OA” value in experiment [2] is 1.080. For the same molecule, the “DR/DR AA” value in experiment [3] was 1.480. In experiment [4], the “DR/DR LNA” value stood at 0.689. In addition, the “DR/DR LA” value in experiment [5] came to 1.193.

B9: 70S, 72A (protein, listed as Rattus norvegicus)
chain: AFDGTWKVDRNENYEKFMEKMGINVVKRKLGAHDNLKLTITQEGNKFTVKESSNFRNIDVVFELGVDFASSAADGTELTGTWTMEGNKLVGKFKRVDNGKELIAVREISGNELIQTYTYEGVEAKRIFKKE
modifications: PEPTIDE (1)...(131) wild-type rat intestinal fatty acid binding protein
Consider B9, for which, in experiment [1], the “DR/DR PA” value was 0.416. Besides, the “DR/DR OA” value in experiment [2] stood at 0.727. Besides, the “DR/DR AA” value in experiment [3] amounted to 0.625. Besides, the “DR/DR LNA” value in experiment [4] came out at 0.703. For the same molecule, the “DR/DR LA” value in experiment [5] is 0.794.

B10: 106F, 72A (protein, listed as Rattus norvegicus)
chain: AFDGTWKVDRNENYEKFMEKMGINVVKRKLGAHDNLKLTITQEGNKFTVKESSNFRNIDVVFELGVDFAYSAADGTELTGTWTMEGNKLVGKFKRVDNGKELIAVFEISGNELIQTYTYEGVEAKRIFKKE
modifications: PEPTIDE (1)...(131) wild-type rat intestinal fatty acid binding protein
Turning to B10, the “DR/DR PA” value in experiment [1] was determined as 0.369. Also, in experiment [2], the “DR/DR OA” value stood at 0.815. The “DR/DR AA” value in experiment [3] was 0.754. In experiment [4], the “DR/DR LNA” value amounted to 0.706. Besides, the “DR/DR LA” value in experiment [5] is listed as 0.812.

B11: 126K, 72A (protein, listed as Rattus norvegicus)
chain: AFDGTWKVDRNENYEKFMEKMGINVVKRKLGAHDNLKLTITQEGNKFTVKESSNFRNIDVVFELGVDFAYSAADGTELTGTWTMEGNKLVGKFKRVDNGKELIAVREISGNELIQTYTYEGVEAKKIFKKE
modifications: PEPTIDE (1)...(131) wild-type rat intestinal fatty acid binding protein
With B11, in experiment [1], the “DR/DR PA” value was determined as 0.356. In addition, in experiment [2], the “DR/DR OA” value is given as 0.631. Besides, in experiment [3], the “DR/DR AA” value is listed as 0.625. For the same molecule, in experiment [4], the “DR/DR LNA” value came to 1.017. The “DR/DR LA” value in experiment [5] is given as 1.039.
